{"source": "paper PMC2841503", "about": "(Molecular cell, 2010)", "target": "yeast ubiquitin (yeast, UniProt P0CG63 1-76)", "sequence (P0CG63 1-76)": "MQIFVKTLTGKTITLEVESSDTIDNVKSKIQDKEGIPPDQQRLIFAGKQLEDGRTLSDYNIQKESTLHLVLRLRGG", "assay": "NMR titration"}
{"binder": "S. cerevisiae Rev1 UBM2 (residues 804-857), GB1-fusion protein (domain or fragment, UniProt P12689 804-857, looked up) LEVNDLPSTMEEQFMNELPTQIRAEVRHDLRIQKKIQQTKLGNLQEKIKRREES", "values": [{"measurement": "binding result", "value": "binds"}]}
